Results as given in the supplement of paper PMC9112550, “Optimization of the antimicrobial peptide Bac7 by deep mutational scanning” (BMC Biology, 2022).

Each sequence was assayed on Escherichia coli TOP10 (assay: shrunken log2 fold change of peptide-encoding DNA abundance (4.5 h post-induction vs induction); higher = less antimicrobial activity (less host growth inhibition)). Details: time post-induction: 4.5 h; library: site-saturation at positions 5, 18, 19, 20.
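Note: peptides expressed intracellularly from a pBAD plasmid library in pooled LB shake-flask culture, induced with 0.3% L-arabinose, DNA abundance read by NGS, three biological replicates, DESeq2 with apeglm shrinkage.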

| Sequence | shrunken log2 fold change |
| --- | --- |
| RRIRARPPRLPRPRPRPYKIPRP | -0.455 |
| RRIRARPPRLPRPRPRPYKLPRP | -0.467 |
| RRIRARPPRLPRPRPRPYKMPRP | -0.821 |
| RRIRARPPRLPRPRPRPYKRPRP | -0.23 |
| RRIRARPPRLPRPRPRPYLEPRP | 0.982 |
| RRIRARPPRLPRPRPRPYLRPRP | -0.228 |
| RRIRARPPRLPRPRPRPYLVPRP | 0.0333 |
| RRIRARPPRLPRPRPRPYMGPRP | 0.0124 |
| RRIRARPPRLPRPRPRPYNHPRP | -0.402 |
| RRIRARPPRLPRPRPRPYPAPRP | -0.146 |
| RRIRARPPRLPRPRPRPYQFPRP | -0.34 |
| RRIRARPPRLPRPRPRPYQIPRP | -0.385 |
| RRIRARPPRLPRPRPRPYSRPRP | -0.0171 |
| RRIRARPPRLPRPRPRPYTGPRP | -0.645 |
| RRIRARPPRLPRPRPRPYVLPRP | -0.347 |
| RRIRARPPRLPRPRPRPYWRPRP | -0.096 |
| RRIRARPPRLPRPRPRPYYHPRP | -1.02 |
| RRIRCRPPRLPRPRPRPAAEPRP | 0.829 |
| RRIRCRPPRLPRPRPRPAAYPRP | -0.101 |
| RRIRCRPPRLPRPRPRPACFPRP | 0.0497 |
| RRIRCRPPRLPRPRPRPADHPRP | 0.0117 |
| RRIRCRPPRLPRPRPRPADRPRP | -0.0122 |
| RRIRCRPPRLPRPRPRPAEEPRP | -0.314 |
| RRIRCRPPRLPRPRPRPAFWPRP | 0.232 |
| RRIRCRPPRLPRPRPRPAGCPRP | 0.262 |

| Sequence | shrunken log2 fold change |
| --- | --- |
| RRIRCRPPRLPRPRPRPAGPPRP | 0.116 |
| RRIRCRPPRLPRPRPRPAGRPRP | 0.373 |
| RRIRCRPPRLPRPRPRPAHEPRP | 0.238 |
| RRIRCRPPRLPRPRPRPAHHPRP | -0.222 |
| RRIRCRPPRLPRPRPRPAHLPRP | -0.104 |
| RRIRCRPPRLPRPRPRPAIFPRP | -0.273 |
| RRIRCRPPRLPRPRPRPAIMPRP | -0.0676 |
| RRIRCRPPRLPRPRPRPAKPPRP | -0.144 |
| RRIRCRPPRLPRPRPRPANLPRP | -0.687 |
| RRIRCRPPRLPRPRPRPANSPRP | -0.685 |
| RRIRCRPPRLPRPRPRPARIPRP | 0.0785 |
| RRIRCRPPRLPRPRPRPASDPRP | -0.0092 |
| RRIRCRPPRLPRPRPRPATHPRP | -0.0187 |
| RRIRCRPPRLPRPRPRPATQPRP | 0.262 |
| RRIRCRPPRLPRPRPRPAVIPRP | -0.383 |
| RRIRCRPPRLPRPRPRPAWHPRP | 0.182 |
| RRIRCRPPRLPRPRPRPCAMPRP | -0.103 |
| RRIRCRPPRLPRPRPRPCARPRP | 0.174 |
| RRIRCRPPRLPRPRPRPCCAPRP | 0.242 |
| RRIRCRPPRLPRPRPRPCCFPRP | -0.155 |
| RRIRCRPPRLPRPRPRPCCPPRP | -0.316 |
| RRIRCRPPRLPRPRPRPCDNPRP | -0.0831 |
| RRIRCRPPRLPRPRPRPCDPPRP | -0.0532 |
| RRIRCRPPRLPRPRPRPCDYPRP | -0.0812 |
| RRIRCRPPRLPRPRPRPCFCPRP | -0.367 |

| Sequence | shrunken log2 fold change |
| --- | --- |
| RRIRCRPPRLPRPRPRPCFRPRP | -0.33 |
| RRIRCRPPRLPRPRPRPCHLPRP | -0.206 |
| RRIRCRPPRLPRPRPRPCLCPRP | -0.185 |
| RRIRCRPPRLPRPRPRPCLSPRP | -0.381 |
| RRIRCRPPRLPRPRPRPCMNPRP | -0.627 |
| RRIRCRPPRLPRPRPRPCPCPRP | -1.35 |
| RRIRCRPPRLPRPRPRPCPEPRP | 1.16 |
| RRIRCRPPRLPRPRPRPCRMPRP | -0.317 |
| RRIRCRPPRLPRPRPRPCRSPRP | 0.118 |
| RRIRCRPPRLPRPRPRPCSAPRP | -0.277 |
| RRIRCRPPRLPRPRPRPCVVPRP | -0.474 |
| RRIRCRPPRLPRPRPRPCWIPRP | -0.464 |
| RRIRCRPPRLPRPRPRPDACPRP | 0.175 |
| RRIRCRPPRLPRPRPRPDAKPRP | 0.0864 |
| RRIRCRPPRLPRPRPRPDAQPRP | 0.456 |
| RRIRCRPPRLPRPRPRPDAWPRP | 0.141 |
| RRIRCRPPRLPRPRPRPDCCPRP | -0.206 |
| RRIRCRPPRLPRPRPRPDCDPRP | -0.812 |
| RRIRCRPPRLPRPRPRPDCHPRP | -0.0697 |
| RRIRCRPPRLPRPRPRPDDCPRP | 0.112 |
| RRIRCRPPRLPRPRPRPDDWPRP | 0.104 |
| RRIRCRPPRLPRPRPRPDENPRP | -0.0357 |
| RRIRCRPPRLPRPRPRPDETPRP | -0.0127 |
| RRIRCRPPRLPRPRPRPDFEPRP | -0.0276 |
| RRIRCRPPRLPRPRPRPDFKPRP | -0.219 |
